The values below come from paper PMC2213055 (The Journal of Experimental Medicine, 2005).

One assay deals with MSH2–MSH3 heterodimer (human, UniProt P43246 1-934; P20585 1-1137). Nature of the assay: ELISA.
The next assay has as its target MSH2–MSH6 heterodimer (human, UniProt P43246 1-934; P52701 1-1360). Nature of the assay: ELISA.

Sequence of MSH2–MSH3 heterodimer (P43246 whole entry, chain 1 of 2): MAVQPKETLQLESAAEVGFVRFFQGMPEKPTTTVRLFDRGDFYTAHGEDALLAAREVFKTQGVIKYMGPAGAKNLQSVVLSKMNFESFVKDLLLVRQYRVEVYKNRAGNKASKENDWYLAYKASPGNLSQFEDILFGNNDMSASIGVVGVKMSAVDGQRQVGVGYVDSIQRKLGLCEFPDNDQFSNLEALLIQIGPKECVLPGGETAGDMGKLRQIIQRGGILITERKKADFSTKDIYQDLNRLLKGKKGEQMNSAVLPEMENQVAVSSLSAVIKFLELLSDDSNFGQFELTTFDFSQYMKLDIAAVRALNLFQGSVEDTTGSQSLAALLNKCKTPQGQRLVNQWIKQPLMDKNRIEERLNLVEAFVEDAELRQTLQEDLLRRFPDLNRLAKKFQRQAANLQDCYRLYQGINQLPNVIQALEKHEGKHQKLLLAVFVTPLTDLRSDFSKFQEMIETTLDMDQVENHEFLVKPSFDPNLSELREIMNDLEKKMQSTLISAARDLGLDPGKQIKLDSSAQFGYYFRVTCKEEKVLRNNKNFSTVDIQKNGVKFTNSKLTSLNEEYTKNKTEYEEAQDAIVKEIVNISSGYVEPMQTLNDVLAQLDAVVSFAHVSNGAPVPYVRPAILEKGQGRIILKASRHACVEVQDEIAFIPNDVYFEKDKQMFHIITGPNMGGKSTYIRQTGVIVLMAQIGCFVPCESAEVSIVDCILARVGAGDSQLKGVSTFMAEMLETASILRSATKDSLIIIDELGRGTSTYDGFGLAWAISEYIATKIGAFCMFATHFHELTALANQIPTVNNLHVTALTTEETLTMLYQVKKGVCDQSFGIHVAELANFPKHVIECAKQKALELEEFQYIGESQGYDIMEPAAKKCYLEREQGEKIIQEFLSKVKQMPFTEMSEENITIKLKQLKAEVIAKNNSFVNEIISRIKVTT
Sequence of MSH2–MSH3 heterodimer (P20585 whole entry, chain 2 of 2): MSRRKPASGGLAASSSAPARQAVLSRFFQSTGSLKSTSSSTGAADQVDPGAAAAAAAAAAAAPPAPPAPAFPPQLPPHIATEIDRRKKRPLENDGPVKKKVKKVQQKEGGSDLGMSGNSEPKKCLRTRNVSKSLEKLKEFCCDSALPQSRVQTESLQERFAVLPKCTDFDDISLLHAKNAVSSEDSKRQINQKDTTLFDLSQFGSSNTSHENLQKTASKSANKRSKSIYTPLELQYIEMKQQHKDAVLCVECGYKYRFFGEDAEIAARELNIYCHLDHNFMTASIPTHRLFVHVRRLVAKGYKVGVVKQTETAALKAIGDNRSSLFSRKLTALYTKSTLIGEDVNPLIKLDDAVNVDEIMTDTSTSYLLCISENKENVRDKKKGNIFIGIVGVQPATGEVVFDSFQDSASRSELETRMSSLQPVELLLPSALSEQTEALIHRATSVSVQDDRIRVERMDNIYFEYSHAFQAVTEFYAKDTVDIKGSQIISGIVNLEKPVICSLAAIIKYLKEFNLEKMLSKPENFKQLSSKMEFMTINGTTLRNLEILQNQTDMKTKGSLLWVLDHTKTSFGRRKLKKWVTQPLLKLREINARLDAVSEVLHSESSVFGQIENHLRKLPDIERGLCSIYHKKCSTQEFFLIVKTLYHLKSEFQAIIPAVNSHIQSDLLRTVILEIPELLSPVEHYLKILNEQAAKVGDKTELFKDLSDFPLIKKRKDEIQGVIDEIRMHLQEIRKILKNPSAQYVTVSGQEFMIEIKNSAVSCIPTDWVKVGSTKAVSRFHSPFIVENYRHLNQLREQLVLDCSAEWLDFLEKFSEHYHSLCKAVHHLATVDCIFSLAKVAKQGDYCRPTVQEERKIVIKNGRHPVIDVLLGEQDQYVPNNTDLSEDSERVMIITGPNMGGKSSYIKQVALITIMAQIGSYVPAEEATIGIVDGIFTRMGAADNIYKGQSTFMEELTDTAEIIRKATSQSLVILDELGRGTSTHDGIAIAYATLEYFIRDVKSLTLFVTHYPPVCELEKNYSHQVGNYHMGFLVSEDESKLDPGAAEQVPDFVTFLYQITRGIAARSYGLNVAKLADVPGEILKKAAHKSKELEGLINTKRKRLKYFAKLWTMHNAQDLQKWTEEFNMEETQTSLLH
Sequence of MSH2–MSH6 heterodimer (P43246 whole entry, chain 1 of 2): as the sequence (P43246 whole entry, chain 1 of 2) above
Sequence of MSH2–MSH6 heterodimer (P52701 whole entry, chain 2 of 2): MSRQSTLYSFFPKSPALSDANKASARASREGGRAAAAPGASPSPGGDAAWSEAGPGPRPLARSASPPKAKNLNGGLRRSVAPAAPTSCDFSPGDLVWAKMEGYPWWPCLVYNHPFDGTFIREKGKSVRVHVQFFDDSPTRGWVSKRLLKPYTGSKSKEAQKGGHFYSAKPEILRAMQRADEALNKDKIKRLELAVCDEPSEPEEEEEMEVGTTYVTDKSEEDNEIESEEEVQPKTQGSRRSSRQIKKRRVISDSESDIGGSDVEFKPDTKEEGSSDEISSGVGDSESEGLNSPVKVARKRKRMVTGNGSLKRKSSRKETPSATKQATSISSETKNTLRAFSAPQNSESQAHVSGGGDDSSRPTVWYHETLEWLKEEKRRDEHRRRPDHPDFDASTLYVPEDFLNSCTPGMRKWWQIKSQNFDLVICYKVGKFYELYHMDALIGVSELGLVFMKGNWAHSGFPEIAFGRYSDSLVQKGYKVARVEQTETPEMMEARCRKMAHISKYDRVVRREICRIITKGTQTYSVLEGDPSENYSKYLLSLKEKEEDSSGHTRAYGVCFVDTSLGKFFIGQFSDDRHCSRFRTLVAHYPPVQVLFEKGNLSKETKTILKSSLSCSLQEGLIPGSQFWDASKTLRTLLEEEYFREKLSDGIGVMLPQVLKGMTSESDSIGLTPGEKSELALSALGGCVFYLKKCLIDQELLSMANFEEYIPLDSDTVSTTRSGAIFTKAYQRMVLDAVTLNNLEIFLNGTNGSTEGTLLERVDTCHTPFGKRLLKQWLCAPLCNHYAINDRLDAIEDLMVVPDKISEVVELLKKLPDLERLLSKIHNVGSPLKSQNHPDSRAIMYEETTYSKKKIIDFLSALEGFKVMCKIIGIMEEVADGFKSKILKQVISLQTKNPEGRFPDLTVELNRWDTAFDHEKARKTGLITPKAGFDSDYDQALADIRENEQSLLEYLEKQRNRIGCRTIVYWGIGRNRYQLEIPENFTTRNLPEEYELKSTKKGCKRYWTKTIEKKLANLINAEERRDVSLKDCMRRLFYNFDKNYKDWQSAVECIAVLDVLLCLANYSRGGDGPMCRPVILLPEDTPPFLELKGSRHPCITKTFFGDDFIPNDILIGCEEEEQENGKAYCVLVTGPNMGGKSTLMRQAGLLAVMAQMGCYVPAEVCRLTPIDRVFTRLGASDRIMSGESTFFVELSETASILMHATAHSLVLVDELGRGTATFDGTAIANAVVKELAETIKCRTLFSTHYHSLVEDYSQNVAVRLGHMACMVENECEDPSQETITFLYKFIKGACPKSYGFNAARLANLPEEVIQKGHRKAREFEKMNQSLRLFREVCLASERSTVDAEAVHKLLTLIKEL

B1: recombinant human DNA polymerase η, (His)6-tagged (enzyme, UniProt Q9Y253 1-713, looked up)
chain: MATGQDRVVALVDMDCFFVQVEQRQNPHLRNKPCAVVQYKSWKGGGIIAVSYEARAFGVTRSMWADDAKKLCPDLLLAQVRESRGKANLTKYREASVEVMEIMSRFAVIERASIDEAYVDLTSAVQERLQKLQGQPISADLLPSTYIEGLPQGPTTAEETVQKEGMRKQGLFQWLDSLQIDNLTSPDLQLTVGAVIVEEMRAAIERETGFQCSAGISHNKVLAKLACGLNKPNRQTLVSHGSVPQLFSQMPIRKIRSLGGKLGASVIEILGIEYMGELTQFTESQLQSHFGEKNGSWLYAMCRGIEHDPVKPRQLPKTIGCSKNFPGKTALATREQVQWWLLQLAQELEERLTKDRNDNDRVATQLVVSIRVQGDKRLSSLRRCCALTRYDAHKMSHDAFTVIKNCNTSGIQTEWSPPLTMLFLCATKFSASAPSSSTDITSFLSSDPSSLPKVPVTSSEAKTQGSGPAVTATKKATTSLESFFQKAAERQKVKEASLSSLTAPTQAPMSNSPSKPSLPFQTSQSTGTEPFFKQKSLLLKQKQLNNSSVSSPQQNPWSNCKALPNSLPTEYPGCVPVCEGVSKLEESSKATPAEMDLAHNSQSMHASSASKSVLEVTQKATPNPSLLAAEDQVPCEKCGSLVPVWDMPEHMDYHFALELQKSFLQPHSSNPQVVSAVSHQGKRNPKSPLACTNKRPRPEGMQTLESFFKPLTH
With B1, the Kd is 7.4 ± 1 nM with MSH2–MSH3 heterodimer and 6.5 ± 0.8 nM with MSH2–MSH6 heterodimer.
